One may read the koff as the rate constant with which the complex falls apart.

Positions of bridges follow the written chain, without caps; N, C: chain ends. No end group written: not given here. *: point of attachment. Biotin = O=C1N[C@H]2[C@H](CS[C@H]2CCCCC(=O)*)N1; βAla = NCCC(=O)O

Assay [1] concerns the target T1, Prefoldin from Pyrococcus horikoshii (PhPFD, α2β4 heterohexamer, 86.4 kDa) (Pyrococcus horikoshii, UniProt O58263 1-148; O58268 1-117, S98G).
T1 construct: Prefoldin α-subunit, Pyrococcus horikoshii, with the point mutation S98G; Prefoldin β-subunit, Pyrococcus horikoshii; Used unlabelled (NMR titration, BLI, EM, ThT assays) and, for the PRE experiments, highly deuterated with 15N or 13CH3 labels on either the α- or the β-subunit; also called archaeal prefoldin; source: E. coli BL21 (DE3), α- and β-subunit from separate pET23c plasmids, purified …
T1 sequence 1: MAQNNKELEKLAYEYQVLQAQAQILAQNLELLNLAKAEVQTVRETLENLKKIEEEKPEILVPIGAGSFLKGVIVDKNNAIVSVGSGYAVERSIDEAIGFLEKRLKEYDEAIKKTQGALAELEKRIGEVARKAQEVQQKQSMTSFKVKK
T1 sequence 2: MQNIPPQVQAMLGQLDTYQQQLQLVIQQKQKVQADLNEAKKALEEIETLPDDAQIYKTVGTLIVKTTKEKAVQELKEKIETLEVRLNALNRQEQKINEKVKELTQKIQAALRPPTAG
Description: BLI; biotinylated monomeric IAPP immobilised on Super Streptavidin biosensors, quenched with biotin; PhPFD 0.5 µM to 150 µM in solution; room temperature; 50 mM MES/NaOH (pH 6.5), 25 mM MgCl2; steady state analysis. To be noted: both partners purified. For orientation: In BLI a coated tip is dipped into the sample, and binding shifts an interference pattern.

The target in assay [2] is T1, Prefoldin from Pyrococcus horikoshii …. Description: NMR titration; unlabeled PhPFD added to 29 µM U-[15N]-IAPP, ratios 1:0 to 1:8; 2D 15N-SOFAST-HMQC at 30 °C; 25 mM MES/NaOH (pH 6.5), 25 mM MgCl2; TITAN global lineshape fitting, two-state model assuming 1:1 stoichiometry; apparent. The settings on record: both partners purified.

B1: biotinylated IAPP (biotinyl-[β-Ala]-[β-Ala]-IAPP-NH2), monomeric (peptide)
peptide: {Biotin-βAla-βAla}-KCNTATCATQRLANFLVHSSNNFGAILSSTNVGSNTY-NH2
modifications: disulfide 2-7
SMILES: CC[C@H](C)[C@H](NC(=O)[C@H](C)NC(=O)CNC(=O)[C@H](Cc1ccccc1)NC(=O)[C@H](CC(N)=O)NC(=O)[C@H](CC(N)=O)NC(=O)[C@H](CO)NC(=O)[C@H](CO)NC(=O)[C@H](Cc1c[nH]cn1)NC(=O)[C@@H](NC(=O)[C@H](CC(C)C)NC(=O)[C@H](Cc1ccccc1)NC(=O)[C@H](CC(N)=O)NC(=O)[C@H](C)NC(=O)[C@H](CC(C)C)NC(=O)[C@H](CCCNC(=N)N)NC(=O)[C@H](CCC(N)=O)NC(=O)[C@@H](NC(=O)[C@H](C)NC(=O)[C@@H]1CSSC[C@H](NC(=O)[C@H](CCCCN)NC(=O)CCNC(=O)CCNC(=O)CCCC[C@@H]2SC[C@@H]3NC(=O)N[C@@H]32)C(=O)N[C@@H](CC(N)=O)C(=O)N[C@@H]([C@@H](C)O)C(=O)N[C@@H](C)C(=O)N[C@@H]([C@@H](C)O)C(=O)N1)[C@@H](C)O)C(C)C)C(=O)N[C@@H](CC(C)C)C(=O)N[C@@H](CO)C(=O)N[C@@H](CO)C(=O)N[C@H](C(=O)N[C@@H](CC(N)=O)C(=O)N[C@H](C(=O)NCC(=O)N[C@@H](CO)C(=O)N[C@@H](CC(N)=O)C(=O)N[C@H](C(=O)N[C@@H](Cc1ccc(O)cc1)C(N)=O)[C@@H](C)O)C(C)C)[C@@H](C)O
notes: Human islet amyloid polypeptide (IAPP, amylin), 37 residues; numbers count on: the mature protein; Molecular mass 4271.9 Da, purity 99.2%; also called monomeric biotinylated IAPP; source: synthetic peptide (custom synthesized, Pepscan, Lelystad); not shown: biotin, N-terminal, kept
Regarding B1, in assay [1], the Kd came out at 11 ± 1.2 µM.

B2: U-[15N]-labeled recombinant human IAPP (non-amidated), monomeric (peptide)
peptide: KCNTATCATQRLANFLVHSSNNFGAILSSTNVGSNTY-OH
modifications: ends and bridges not checked; also: U-[15N] isotope label
notes: Human islet amyloid polypeptide (IAPP, amylin); numbers count on: the mature protein; also called U-[15N]-IAPP; monomeric IAPP; source: preparative RP-HPLC as final step
In the case of B2, in assay [2], the Kd was determined as 61 µM and the koff was roughly 6000 s⁻¹.

The values are drawn from article PMC9061850, “Structural basis for the inhibition of IAPP fibril formation by the co-chaperonin prefoldin” (Nature Communications, 2022).
